Data: patent publication US20210023177A1

What was measured:
[1] = biological target: human Claudin 18 splice variant 2 (CLDN18.2) (human)
[2] = biological target: human Claudin 18 splice variant 2 (CLDN18.2) (human); experiment: cell-based or functional assay

B1: IMAB362 (antibody, INN chains, looked up, V domains shown)
VH: QVQLQQPGAELVRPGASVKLSCKASGYTFTSYWINWVKQRPGQGLEWIGNIYPSDSYTNYNQKFKDKATLTVDKSSSTAYMQLSSPTSEDSAVYYCTRSWRGNSFDYWGQGTTLTVSS
VL: DIVMTQSPSSLTVTAGEKVTMSCKSSQSLLNSGNQKNYLTWYQQKPGQPPKLLIYWASTRESGVPDRFTGSGSGTDFTLTISSVQAEDLAVYYCQNDYSYPFTFGSGTKLEIKR
B1 gave a CLDN18 surface expression (FACS), % of cells stained [1] of 81.7%, an ADCC EC50 (ng/ml), BxPC3 LVT cells [2] of 47.7 ng/mL and an ADCC EC50 (ng/ml), CAPAN1-LVT cells [2] of 65 ng/mL. It also gave an ADCC EC50 (ng/ml), DANG cells [2] of 4980 ng/mL, an ADCC EC50 (ng/ml), DANG-LVT cells [2] of 52.3 ng/mL and an ADCC EC50 (ng/ml), HPAC-LVT cells [2] of 117 ng/mL. For the same binder, the ADCC EC50 (ng/ml), MiaPaCa2-LVT cells [2] was 23.4 ng/mL, the ADCC EC50 (ng/ml), Panc05.04 cells [2] was 5730 ng/mL and the ADCC EC50 (ng/ml), Patu8902-LVT cells [2] was 49.2 ng/mL. For the same binder, the ADCC EC50 (ng/ml), Suit2-LVT cells [2] was 73.2 ng/mL, the ADCC EC50 (ng/ml), YAPC-LVT cells [2] was 29.5 ng/mL and the ADCC Max. lysis (%), BxPC3 LVT cells, human PBMC E:T 40:1 [2] was 90.6%. The ADCC Max. lysis (%), CAPAN1-LVT cells [2] was 92.6%, the ADCC Max. lysis (%), DANG cells [2] was 52.5% and the ADCC Max. lysis (%), DANG-LVT cells [2] was 85.9%. It also gave an ADCC Max. lysis (%), HPAC-LVT cells [2] of 76.2%, an ADCC Max. lysis (%), MiaPaCa2-LVT cells [2] of 78.1% and an ADCC Max. lysis (%), Panc05.04 cells [2] of 67.1%. For the same binder, the ADCC Max. lysis (%), Patu8902-LVT cells [2] was 74.1%, the ADCC Max. lysis (%), Suit2-LVT cells [2] was 81.2% and the ADCC Max. lysis (%), YAPC-LVT cells [2] was 91.5%. For the same binder, the CDC EC50 (ng/ml), CAPAN1-LVT cells [2] was 970 ng/mL, the CDC EC50 (ng/ml), MiaPaCa2-LVT cells [2] was 340 ng/mL and the CDC EC50 (ng/ml), Patu8902-LVT cells [2] was 291 ng/mL. The CDC EC50, gemcitabine pretreated MiaPaCa-2-LVT cells [2] was 4.68 µg/mL, the CDC EC50, medium cultivated MiaPaCa-2-LVT cells [2] was 7.67 µg/mL and the CDC Max. lysis (%), CAPAN1-LVT cells [2] was 79.1%. It also gave a CDC Max. lysis (%), MiaPaCa2-LVT cells [2] of 78.4% and a CDC Max. lysis (%), Patu8902-LVT cells [2] of 76.7%.
